According to IntAct's records for PubMed 29374201:

B1: Complement factor H (Homo sapiens), P08603 (parent)
chain: MRLLAKIICLMLWAICVAEDCNELPPRRNTEILTGSWSDQTYPEGTQAIYKCRPGYRSLGNVIMVCRKGEWVALNPLRKCQKRPCGHPGDTPFGTFTLTGGNVFEYGVKAVYTCNEGYQLLGEINYRECDTDGWTNDIPICEVVKCLPVTAPENGKIVSSAMEPDREYHFGQAVRFVCNSGYKIEGDEEMHCSDDGFWSKEKPKCVEISCKSPDVINGSPISQKIIYKENERFQYKCNMGYEYSERGDAVCTESGWRPLPSCEEKSCDNPYIPNGDYSPLRIKHRTGDEITYQCRNGFYPATRGNTAKCTSTGWIPAPRCTLKPCDYPDIKHGGLYHENMRRPYFPVAVGKYYSYYCDEHFETPSGSYWDHIHCTQDGWSPAVPCLRKCYFPYLENGYNQNYGRKFVQGKSIDVACHPGYALPKAQTTVTCMENGWSPTPRCIRVKTCSKSSIDIENGFISESQYTYALKEKAKYQCKLGYVTADGETSGSITCGKDGWSAQPTCIKSCDIPVFMNARTKNDFTWFKLNDTLDYECHDGYESNTGSTTGSIVCGYNGWSDLPICYERECELPKIDVHLVPDRKKDQYKVGEVLKFSCKPGFTIVGPNSVQCYHFGLSPDLPICKEQVQSCGPPPELLNGNVKEKTKEEYGHSEVVEYYCNPRFLMKGPNKIQCVDGEWTTLPVCIVEESTCGDIPELEHGWAQLSSPPYYYGDSVEFNCSESFTMIGHRSITCIHGVWTQLPQCVAIDKLKKCKSSNLIILEEHLKNKKEFDHNSNIRYRCRGKEGWIHTVCINGRWDPEVNCSMAQIQLCPPPPQIPNSHNMTTTLNYRDGEKVSVLCQENYLIQEGEEITCKDGRWQSIPLCVEKIPCSQPPQIEHGTINSSRSSQESYAHGTKLSYTCEGGFRISEENETTCYMGKWSSPPQCEGLPCKSPPEISHGVVAHMSDSYQYGEEVTYKCFEGFGIDGPAIAKCLGEKWSHPPSCIKTDCLSLPSFENAIPMGEKKDVYKAGEQVTYTCATYYKMDGASNVTCINSRWTGRPTCRDTSCVNPPTVQNAYIVSRQMSKYPSGERVRYQCRSPYEMFGDEEVMCLNGNWTEPPQCKDSTGKCGPPPPIDNGDITSFPLSVYAPASSVEYQCQNLYQLEGNKRITCRNGQWSEPPKCLHPCVISREIMENYNIALRWTAKQKLYSRTGESVEFVCKRGYRLSSRSHTLRTTCWDGKLEYPTCAKR
partner: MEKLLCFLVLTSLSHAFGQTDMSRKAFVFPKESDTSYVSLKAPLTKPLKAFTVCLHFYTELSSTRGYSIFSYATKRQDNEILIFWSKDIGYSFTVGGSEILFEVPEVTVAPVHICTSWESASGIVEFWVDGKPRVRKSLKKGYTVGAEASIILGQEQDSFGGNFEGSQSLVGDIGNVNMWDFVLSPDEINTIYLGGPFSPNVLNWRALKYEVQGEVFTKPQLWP
B2: Complement factor H (Homo sapiens), P08603-2 (parent)
chain: MRLLAKIICLMLWAICVAEDCNELPPRRNTEILTGSWSDQTYPEGTQAIYKCRPGYRSLGNVIMVCRKGEWVALNPLRKCQKRPCGHPGDTPFGTFTLTGGNVFEYGVKAVYTCNEGYQLLGEINYRECDTDGWTNDIPICEVVKCLPVTAPENGKIVSSAMEPDREYHFGQAVRFVCNSGYKIEGDEEMHCSDDGFWSKEKPKCVEISCKSPDVINGSPISQKIIYKENERFQYKCNMGYEYSERGDAVCTESGWRPLPSCEEKSCDNPYIPNGDYSPLRIKHRTGDEITYQCRNGFYPATRGNTAKCTSTGWIPAPRCTLKPCDYPDIKHGGLYHENMRRPYFPVAVGKYYSYYCDEHFETPSGSYWDHIHCTQDGWSPAVPCLRKCYFPYLENGYNQNYGRKFVQGKSIDVACHPGYALPKAQTTVTCMENGWSPTPRCIRVSFTL
partner: B1 partner
B3: Complement factor H (Homo sapiens), P08603-2 (parent)
chain: B2 chain

Variants of: B1
Conditions: with crp_human CRP

| Variant | effect of a mutation on the interaction |
| --- | --- |
| Y402H | decreasing interaction strength |

Variants of: B2
Conditions: with crp_human CRP

| Variant | effect of a mutation on the interaction |
| --- | --- |
| Y402H | decreasing interaction strength |

Variants of: B3
Conditions: with ptx3_human PTX3, P26022
Sequence of ptx3_human PTX3, P26022 (P26022 whole entry): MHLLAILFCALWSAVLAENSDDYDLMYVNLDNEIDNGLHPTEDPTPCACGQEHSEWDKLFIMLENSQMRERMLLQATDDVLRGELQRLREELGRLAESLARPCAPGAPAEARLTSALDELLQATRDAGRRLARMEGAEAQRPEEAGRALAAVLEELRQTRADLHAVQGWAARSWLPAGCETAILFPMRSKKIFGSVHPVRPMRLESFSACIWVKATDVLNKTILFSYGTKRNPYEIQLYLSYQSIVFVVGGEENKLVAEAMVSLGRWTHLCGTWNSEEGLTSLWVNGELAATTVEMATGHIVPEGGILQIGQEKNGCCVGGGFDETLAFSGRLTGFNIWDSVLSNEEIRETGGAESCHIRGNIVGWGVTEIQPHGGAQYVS

| Variant | effect of a mutation on the interaction |
| --- | --- |
| Y402H | disrupting interaction strength |

Variants of: B3
Conditions: with ptx3_human PTX3, P26022
Remark: another data set of the same source

| Variant | effect of a mutation on the interaction |
| --- | --- |
| Y402H | decreasing interaction strength |
